Laboratory results as given in patent US20250297004A1, “NECTIN-4 BINDING AGENTS” (INNATE PHARMA, priority 2022, published 2025).
Numbering of substitutions follows the chain as printed.

T1: human Nectin-4 Mutant 3 (A76S/Q77R/E78A/S91N) (Homo sapiens, UniProt Q96NY8, A76S/E78A/Q77R/S91N)
T1 construct: expressed in transfected cells; host or cells: HEK293T
T1 sequence (Q96NY8 32-510 A76S/Q77R/E78A/S91N): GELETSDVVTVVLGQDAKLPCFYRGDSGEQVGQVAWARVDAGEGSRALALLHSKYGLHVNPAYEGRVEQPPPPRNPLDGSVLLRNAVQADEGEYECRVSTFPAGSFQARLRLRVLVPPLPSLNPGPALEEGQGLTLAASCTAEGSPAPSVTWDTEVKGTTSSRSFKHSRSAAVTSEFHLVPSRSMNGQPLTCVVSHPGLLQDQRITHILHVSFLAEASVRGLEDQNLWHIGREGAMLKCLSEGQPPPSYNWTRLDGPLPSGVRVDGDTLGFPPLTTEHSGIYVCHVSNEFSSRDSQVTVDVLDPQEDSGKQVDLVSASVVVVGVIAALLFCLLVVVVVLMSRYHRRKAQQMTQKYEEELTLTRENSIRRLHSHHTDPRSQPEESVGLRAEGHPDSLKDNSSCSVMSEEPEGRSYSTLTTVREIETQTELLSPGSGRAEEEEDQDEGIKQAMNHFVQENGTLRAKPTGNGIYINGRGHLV

T2: human Nectin-4 Mutant 9 (L150S/S152A/Q234R/I236S) (Homo sapiens, UniProt Q96NY8, I236S/L150S/Q234R/S152A)
T2 construct: expressed in transfected cells; host or cells: HEK293T
T2 sequence (Q96NY8 32-510 L150S/S152A/Q234R/I236S): T1 sequence (Q96NY8 32-510 A76S/Q77R/E78A/S91N) with S45A, R46Q, A47E, N60S, L119S, S121A, Q203R, I205S

T3: human Nectin-4 Mutant 4 (A72P/G73N/G75S) (Homo sapiens, UniProt Q96NY8, A72P/G73N/G75S)
T3 construct: expressed in transfected cells; host or cells: HEK293T
T3 sequence (Q96NY8 32-510 A72P/G73N/G75S): T1 sequence (Q96NY8 32-510 A76S/Q77R/E78A/S91N) with A41P, G42N, G44S, S45A, R46Q, A47E, N60S

T4: human Nectin-4 Mutant 6 (H238A/I239T/H241Q) (Homo sapiens, UniProt Q96NY8, H238A/H241Q/I239T)
T4 construct: expressed in transfected cells; host or cells: HEK293T
T4 sequence (Q96NY8 32-510 H238A/I239T/H241Q): T1 sequence (Q96NY8 32-510 A76S/Q77R/E78A/S91N) with S45A, R46Q, A47E, N60S, H207A, I208T, H210Q

B1: N41 (antibody, V domains shown)
VH: QVQLKQSGPGLVQPSQSLSITCTVSGFSLTNYGVHWVRQSPGKGLEWLGVIWSGGSTDYNAAFISRLSISKDTSKSQVFFKMNSLQADDTAIYYCARELIHAMDNWGQGTSVTVSS
VL: DIQMTQSPASLSVSVGETVTITCRASENIYSNLAWYQQKQGNSPQLLVFAATNLADGVPSRFSGSGSGTQYSLKINSLQSEDFGTYYCQHFWGTPTFGGGTKLEIK
B2: 5E7 (antibody, V domains shown)
VH: QVQLQQPGAELVKPGASVKLSCKASGYIFTSYWMHWVKQRPGQGLEWIGEIDPSDSYTNYNQKFKGKATLTLDKSSSTTYMQLSSLTSEDSAVYYCVRGYGNYGDYWGQGTTLTVSSASTKGP
VL: DVVMTQAAFSNPVTLGTSASISCRSSKSLLHSNGITYLYWYLQKPGQSPQLLIYQMSNLASGVPDRFSSSGSGTDFTLRISRVEAEDVGVYYCAQNLELPWTFGGGTKLEIKRTVAAP

Assays:
Test in all cases: Epitope mapping using Nectin-4 point mutants
Format in all cases: binding
[1] = biological target: T1, human Nectin-4 Mutant 3 (A76S/Q77R/E78A/S91N)
Description: (§1) Combined with the published structures of the Nectin-4 domains, Nectin-4 mutations at surface exposed amino acids residues were designed. Nectin-4 domain structure was modelled based on Protein Data Bank reference: 4FRW (domains V et C1). Human Nectin-4 used was NCBI Reference Sequence: NP_112178.2, mouse Nectin-4 used was NCBI Reference Sequence: AAL79833.1, cynomolgus Nectin-4 used was NCBI Reference Sequence: XP_005541277.1, rat Nectin-4 used was NCBI Reference Sequence: NP_001102546.1. The cells expressing the Nectin-4 mutants are then be used for testing anti-Nectin-4 antibodies for loss of binding to different Nectin-4 mutants to identify antibodies that bind to the same site on Nectin-4. […] FIGS. 8A and 8B show different view of a molecular model of the human Nectin-4 protein, indicating the position of substituted residues in mutants 1, 2, 3, 4, 5, 6, 7, 8 and 9.
(§2) Nectin-4 mutants were generated by PCR. The sequences amplified were run on agarose gel and purified using the Macherey Nagel PCR Clean-Up Gel Extraction kit. The purified PCR products generated for each mutant were then ligated into an expression vector, with the ClonTech InFusion system. The vectors containing the mutated sequences were prepared as Miniprep and sequenced. After sequencing, the vectors containing the mutated sequences were prepared as Midiprep using the Promega PureYield™ Plasmid Midiprep System. HEK293T cells were grown in DMEM medium (Invitrogen), transfected with vectors using Invitrogen's Lipofectamine 2000 and incubated at 37° C. in a CO2 incubator for 48 hours prior to testing for transgene expression. The targeted amino acid mutations are shown in Table 13 below, listing the residue present in wild-type Nectin-4/position of residue/residue present in mutant Nectin-4, with position reference being to the Nectin-4 protein with leader peptide shown in SEQ ID NO: 1.
(§3) (+) means that antibodies-Nectin-4 association occurs.

[2] = biological target: T2, human Nectin-4 Mutant 9 (L150S/S152A/Q234R/I236S)
Description: as §1, §2, §3

[3] = biological target: T3, human Nectin-4 Mutant 4 (A72P/G73N/G75S)
Description: as §1, §2, §3

[4] = tested on: human Nectin-4 Mutant 5 (A158P/E160G/S243A/F244S); settings: results irrelevant due to an absence of expression of said protein
Description: as §1, §2, §3

[5] = biological target: T4, human Nectin-4 Mutant 6 (H238A/I239T/H241Q)
Description: as §1, §2, §3

Row | Molecule | association with Mutant 3 [1] | association with Mutant 9 [2] | association with Mutant 4 [3] | association with Mutant 5 [4] | association with Mutant 6 [5]
1 | B1 | + | + | + | − | +
2 | B2 | + | + | + | − | +
